For orientation: EC50 means the midpoint of the concentration-response curve. In general, Kd refers to a measure of binding affinity in units of concentration. For orientation: koff means the first-order rate constant of dissociation. What is called kon is the rate constant with which the complex forms.

For assay [1], the target named is T1, extracellular domain (ECD) of recombinant human Sortilin with a C-terminal HIS tag (ECD-huSortilin-HIS) (human, UniProt Q99523 78-755).
T1 construct: Bought (R&D Systems); also called human sortilin-ECD; not shown: C-terminal HIS tag
T1 sequence: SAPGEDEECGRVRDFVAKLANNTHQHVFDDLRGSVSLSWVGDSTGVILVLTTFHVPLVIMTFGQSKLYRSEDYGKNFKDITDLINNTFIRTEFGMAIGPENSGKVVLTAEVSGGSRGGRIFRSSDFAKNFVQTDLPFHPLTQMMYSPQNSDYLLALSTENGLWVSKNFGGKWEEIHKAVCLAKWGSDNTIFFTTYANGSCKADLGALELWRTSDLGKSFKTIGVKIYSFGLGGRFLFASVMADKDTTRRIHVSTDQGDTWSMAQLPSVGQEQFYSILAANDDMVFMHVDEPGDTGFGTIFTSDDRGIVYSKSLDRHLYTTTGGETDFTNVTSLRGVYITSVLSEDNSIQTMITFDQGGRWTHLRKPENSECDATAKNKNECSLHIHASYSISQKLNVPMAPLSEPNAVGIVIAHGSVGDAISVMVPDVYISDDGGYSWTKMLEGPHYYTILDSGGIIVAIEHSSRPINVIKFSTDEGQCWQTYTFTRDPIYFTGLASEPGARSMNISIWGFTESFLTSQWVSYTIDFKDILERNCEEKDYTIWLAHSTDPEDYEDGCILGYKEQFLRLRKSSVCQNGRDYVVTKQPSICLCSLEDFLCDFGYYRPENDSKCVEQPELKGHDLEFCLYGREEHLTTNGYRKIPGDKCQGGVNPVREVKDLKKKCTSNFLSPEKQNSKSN
The assay can be described thus: ELISA, Ab binding to hSortilin-ECD. As for the experimental part: Purified anti-huSortilin mAb binding to huSortilin was characterized by ELISA (ELISA protocol as in Example 1) using a 12 point titration of mAb concentration. mAbs were diluted 2-fold from a starting concentration of 67 nM and then added to ECD-huSortilin-HIS coated plates. Data was analyzed and EC₅₀ (nM) was calculated using graphed Prism. Commercially available goat anti-huSortilin (R&D Biosystems) was used as a positive control. Results are depicted in FIG. 8.

Assay [2] has as its target T2, human sortilin on the cell surface (recombinant huSortilin on HEK 293 cells; endogenous on U251MG cells) (human, UniProt Q99523 78-831).
T2 construct: whole, on cells; also called huSortilin expressing HEK293 cells; cell surface huSortilin
T2 sequence (looked up): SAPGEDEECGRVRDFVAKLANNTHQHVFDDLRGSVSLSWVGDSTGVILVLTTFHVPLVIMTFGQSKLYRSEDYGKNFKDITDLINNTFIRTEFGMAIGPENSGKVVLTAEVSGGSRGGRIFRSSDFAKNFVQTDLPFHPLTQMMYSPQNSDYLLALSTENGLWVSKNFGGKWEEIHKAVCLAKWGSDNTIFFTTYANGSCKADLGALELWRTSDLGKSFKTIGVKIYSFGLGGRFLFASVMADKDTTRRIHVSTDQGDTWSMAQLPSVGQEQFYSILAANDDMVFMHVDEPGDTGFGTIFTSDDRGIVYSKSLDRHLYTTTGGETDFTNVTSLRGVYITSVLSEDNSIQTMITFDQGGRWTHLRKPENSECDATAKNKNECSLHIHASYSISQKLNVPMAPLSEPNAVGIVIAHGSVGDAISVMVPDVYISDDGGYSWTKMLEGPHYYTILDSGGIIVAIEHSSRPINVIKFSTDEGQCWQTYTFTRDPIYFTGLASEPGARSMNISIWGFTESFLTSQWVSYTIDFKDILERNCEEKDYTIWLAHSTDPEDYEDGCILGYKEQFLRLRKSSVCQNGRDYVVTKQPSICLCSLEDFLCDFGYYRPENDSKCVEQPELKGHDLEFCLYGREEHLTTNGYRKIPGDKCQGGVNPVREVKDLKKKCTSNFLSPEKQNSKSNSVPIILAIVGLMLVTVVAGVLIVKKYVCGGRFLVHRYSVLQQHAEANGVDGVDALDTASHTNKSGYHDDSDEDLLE
Put plainly: cell-based blocking titration (flow cytometry), huSortilin HEK293 cells; blocked ligand 30 nM huPGRN-Biotin. The protocol:
Cells were cultured using standard methods. […] Cells were then washed twice in PBS+2% FBS and incubated for 30 minutes on ice with 50 uL per well 1:200 Steptavidin-APC (BD biosciences) in PBS+2% FBS. Cells were then washed as above and resuspended in 100 uL PBS+2% FBS. Data was acquired using the BD LSR II and analyzed using FlowJo software version 10.6 and Microsoft excel.
The cell-based blocking assay was repeated with the top 12 blocking mAbs using a dose titration from 67 nM to 0.4 nM. Blocking assay was carried out as above. Data was analyzed using FlowJo software version 10.6. and GraphPad Prism software.

Assay [3] deals with T1, extracellular domain (ECD) of …. Put plainly: blocking ELISA, coated ECD-huSortilin-HIS; blocked ligand huPGRN-Biotin.
Assay [4] has the same target. Put plainly: SPR (Biacore T200), mAb captured by anti-mouse antibody on CM5, Sortilin 0.1-300 nM as analyte, global 1:1 fit. As for the experimental part: Analysis was performed using a Biacore T200 to compare the binding affinity of murine anti-huSortilin antibodies to recombinant human Sortilin. Anti-mouse antibody was immobilized on sensor chip CM5 (GE Healthcare Life Sciences) via amine coupling, and mouse antibodies (ligand) were captured to a level to ensure a maximum binding of analyte of 50 RU (approximately 100RU of ligand binding). Various concentrations of Sortilin (ranging from 0.1 nM to 300 nM) were passed over the captured ligand at […] in running buffer (HBS+0.05% P-20, 1 mg/mL BSA) for 180-300s association time and 300-900s dissociation time. Regeneration of the chip surface was accomplished by 2 short injections of 10 mM Glycine-HCl at pH 1.7. Data was blank subtracted to both a sensor not containing ligand and 0 nM analyte concentration. Analysis was performed using a global 1:1 fit with Biacore Insight Evaluation software (v2.0) with bulk refractive index set to zero RU.
A general note: Surface plasmon resonance follows binding to a sensor surface in real time, without labels.

The target is the same in assay [5]. The assay can be described thus: blocking ELISA, coated ECD-huSortilin-HIS, purified mAb; blocked ligand huPGRN-Biotin. For orientation: In an ELISA, binding on a coated surface is turned into a signal by an enzyme label.

B1: mouse monoclonal antibody 9N18 (antibody, mouse IgG2b, V domains shown)
VH: EIQLQQSGPELVKPGASVKISCKASGYSFTGYYMNWVKQSPEKSLEWIGEINPITGGTTYNQNFKAKATLTVDKSSSTAYLQLRSLTSEDSAVYYCASDYFGSNSWFAYWGQGTLVTVSA
VL: DVLMTQTPLSLPVSLGDQASISCRSSQSIVHRNGNTYLEWYLQKPGQSPKLLIYKVSNRFSGVPDRFSGSGSGTDFTLRISRVEAEDLGVYYCFQGSHVPYTFGGGTKLEIK
notes: mouse IgG2b, kappa
Regarding B1, in assay [1], the EC50 amounted to 0.8 nM. Also, in assay [2], the “% Max blocking at 11nM mAb” value was found to be 45%. The “% Blocking at 7.4nM mAb” value in assay [3] is 65%.

B2: mouse monoclonal antibody 2C14 (antibody, mouse IgG1, V domains shown)
VH: EVQLVESGGDLVKPGGSLKLSCAASGFTFNTHGMSWVRQTPDKSLEWVATISTGGFYTSYPDSVKGRFTISRDNAKNTLFLQMSSLKSEDTAMYYCAKSSSHWYFDVWGTGTTVTVSS
VL: DILMTQSPSSMSVSLGDTVSITCHASQGISSNIGWLQQKPGKSFKGLIYHGTNLEDGVPSRFSGSGSGADYSLTISSLEYEDFADYYCVQYAHFPYTFGGGTKLEIK
notes: mouse IgG1, kappa
In the case of B2, the concentration giving a half-maximal response (EC50) in assay [1] is 1 nM. The “% Max blocking at 11nM mAb” value in assay [2] came out at 64%. Also, the Kd in assay [4] was 11.8 nM. Further, the “% Blocking at 7.4nM mAb” value in assay [3] was determined as 79%.

B3: mouse monoclonal antibody 5E20 (antibody, mouse IgG1, V domains shown)
VH: EVQLVESGGDLVKPGGSLKLSCAAPGFTFSTYGMSWVRQTPDKRLEWVAIISSGGSYTYYSDTVKGRFTISRDNAKNTLYLQMSSLKSEDTAMYYCSRSSSHWYFDVWGTGTTVTVSS
VL: DILMTQSPSSMSVSLGDTVSITCHASQGISSNIGWLQQKPGKSFKGLIYHGTNLKDGVPSRFSGSGSGADFSLTISSLESEDFADYFCVQYAQFPYTFGGGTKLEKR
notes: mouse IgG1, kappa; also called ms5E20; ms5E20new
For B3, in assay [1], the EC50 was found to be 1.1 nM. The “% Max blocking at 11nM mAb” value in assay [2] was found to be 54%. For the same molecule, the Kd in assay [4] worked out at 1.59 nM. For the same molecule, the “% Blocking at 7.4nM mAb” value in assay [3] came out at 76%.

B4: mouse monoclonal antibody 6B15 (antibody, mouse IgG1, V domains shown)
VH: EVQLVESGGDLVKPGGSLKLSCAAPGFTFSTYGMSWVRQTPDKRLEWVAIISSGGSYTYYSDTVKGRFTISRDNAKNTLNLQMSSLKSEDTAMYFCSRSSSHWYFDVWGTGTTVTVSS
VL: DILMTQFPSSMSVSLGDTVSITCHASQGISSNIGWLQQKPGKSFKGLIYHGTNLKDGVPSRFSGSGSGTDFSLTISSLESEDFADYYCVQYAQFPYTFGGGTKLEKR
notes: mouse IgG1, kappa
With B4, the EC50 in assay [1] was 3.8 nM. Also, the “% Max blocking at 11nM mAb” value in assay [2] stood at 33%. Besides, the dissociation constant Kd in assay [4] stood at 1.02 nM. The “% Blocking at 7.4nM mAb” value in assay [3] was 51%. Moreover, in assay [5], the “IC50 (read off the curve)” value was about 5 nM.

B5: mouse monoclonal antibody 5M13 (antibody, mouse IgG1, V domains shown)
VH: DVQLQESGPGLVKPSQSLSLTCTVTGYSITSDYAWNWIRQFPGNKLEWMGYISSSGSTSYNPSLKSRISVTRDTSKNQFFLQLNFVTAEDTATYYCAFVTTTMDYWGQGTSVTVSS
VL: DVVMTQTPLSLPVSLGDQASISCRSSQSLVHSNGNTYLHWYLQKPGQSPKLLIYTVSNRFSGVPDRFSGSGSGTDFTLKISRVEAEDLGVYFCSQSTHVPFTFGSGTKLEIK
notes: mouse IgG1, kappa
For the molecule B5, the EC50 in assay [1] was 2.7 nM. Besides, the “% Max blocking at 11nM mAb” value in assay [2] amounted to 0%. Further, in assay [4], the Kd was determined as 2.29 nM, the koff is 0.000411 s⁻¹ and the kon came out at 179000 M⁻¹ s⁻¹. The “% Blocking at 7.4nM mAb” value in assay [3] is 27%.

B6: mouse monoclonal antibody 11M14 (antibody, mouse IgG1, V domains shown)
VH: EVQLVESGGDLVKPGGSLKLSCAASGFTFNIYGMSWVRQTPDKRLEWVATISSGGIYTYYPDILKGRFTISRDNAKNTLYLQMSSLKSEDTAMYYCARHPGGAMDYWGQGTSVTVSS
VL: DIQMTQSPASLSVSVGETVTITCRVSENIYSNLAWYQQKQGKSPHLLVYAATNLADGVPSRFSGSGSGTQYSLKINSLQSEDFGSYYCQHFWGTPPWTFGGGTKLEIK
notes: mouse IgG1, kappa; also called ms11M14
For B6, in assay [1], the EC50 came out at 0.8 nM. In assay [2], the “% Max blocking at 11nM mAb” value was 48%. Further, the Kd in assay [4] amounted to 6.24 nM. Moreover, the “% Blocking at 7.4nM mAb” value in assay [3] turned out to be 75%.

B7: mouse monoclonal antibody 2F18 (antibody, mouse IgG1, V domains shown)
VH: EVQLVESGGDLVKPGGSLKLSCAASGFTFNIYGMSWVRQTPDKRLEWVATISTGGIYTYYPDSVKGRFTISRDNAKNTLYLQMSSLKSEDTAMYYCARHPVGALDYWGQGTSVTVSS
VL: DIQVTQSPASLSVSVGETVTITCRASENIYSNLAWYQQKQGKSPHLLVYTATTLADGVPSRFSGSGSGTQYSLKINSLQSEDFGSYYCQHFWGTPPWTFGGGTKLEIK
notes: mouse IgG1, kappa
Take B7: the EC50 in assay [1] amounted to 0.7 nM. Also, the “% Max blocking at 11nM mAb” value in assay [2] came out at 41%. For the same molecule, the Kd in assay [4] amounted to 2.81 nM. Also, the “% Blocking at 7.4nM mAb” value in assay [3] was 76%.

B8: mouse monoclonal antibody 2P22 (antibody, mouse IgG2b, V domains shown)
VH: EVQLVESGGDLVKPGGSLKLSCAASGFTFSIYGMSWVRQTPDKKLEWVAAISSGGIYTYYPDSVKGRFTISRDNAKNTLYLQMSSLKSADTAMYYCTRNDYDWFAYWGQGTLVTVSA
VL: DIQMTQSPSSLSASLGERVSLTCRASQDIGSSLNWLQQEPDGTIKRLIYATSSLDSGVPKRFSGSRSGSDYSLTISSLESEDFVDYYCLQYASSPYTFGGGTKLEIK
notes: mouse IgG2b, kappa
B8: in assay [1], the EC50 was 0.8 nM. Further, the “% Max blocking at 11nM mAb” value in assay [2] came out at 40%. Further, the Kd in assay [4] turned out to be 2.21 nM. Further, in assay [3], the “% Blocking at 7.4nM mAb” value worked out at 67%.

Source of the values: patent publication US20230235048A1 (PROTHENA BIOSCIENCES, published 2023).
